B1: 54E11 (antibody, V domains shown)
VH: QIQLVQSGPELKKPGETVKISCKASGYTFTSYGMNWVKQAPGKGLKWMGWINTYTGEPTYADDFKGRFAFSLETSASTAYLQINNLKNEDTATYFCAREHYYGINPLLGCWGQGTTLTVSS
VL: DIQMTQTTSSLSASLGDRVTISCSASQGISNYLNWYQQKPDGTVKLLIYDTSSLHSGVPSRFSGSGSGTDYSLTISNLEPEDIATYYCQQYSKLPYTFGGGTKLEIK
notes: also called NAb 54E11
B2: 21F6 (antibody, V domains shown)
VH: B1 VH
VL: B1 VL
notes: also called NAb 21F6

Legend:
[1] = molecular target: gH/gL/UL128/UL130/UL131A pentamer complex (PC) of HCMV strain TB40/E virus (human cytomegalovirus strain TB40/E); assay: cell-based or functional assay
[2] = molecular target: gH/gL/UL128/UL130/UL131A pentamer complex (PC) of HCMV strain TR virus (human cytomegalovirus strain TR); assay: cell-based or functional assay
[3] = molecular target: T1, UL128 expressed from MVA in BHK-21 cells (human cytomegalovirus, UniProt P16837 28-171); assay: intracellular FC, MVA-infected BHK-21
T1 construct: whole, on cells
T1 sequence: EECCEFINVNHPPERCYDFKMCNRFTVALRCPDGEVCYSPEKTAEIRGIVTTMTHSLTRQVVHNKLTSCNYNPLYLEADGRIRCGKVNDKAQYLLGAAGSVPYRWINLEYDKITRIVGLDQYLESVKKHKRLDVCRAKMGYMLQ

[4] = molecular target: T2, UL130 expressed from MVA in BHK-21 cells (human cytomegalovirus, UniProt P16772 1-214); assay: intracellular FC, MVA-infected BHK-21
T2 construct: whole, on cells

[5] = molecular target: T3, UL131A expressed from MVA in BHK-21 cells (human cytomegalovirus, UniProt F5HET4 19-129); assay: intracellular FC, MVA-infected BHK-21
T3 construct: whole, on cells

[6] = molecular target: T4, UL128/UL130 co-expressed from MVA in BHK-21 cells (human cytomegalovirus, UniProt P16837 28-171; P16772 1-214); assay: intracellular FC, MVA-infected BHK-21
T4 construct: whole, on cells

[7] = molecular target: T5, UL128/UL131A co-expressed from MVA in BHK-21 cells (human cytomegalovirus, UniProt P16837 28-171; F5HET4 19-129); assay: intracellular FC, MVA-infected BHK-21
T5 construct: whole, on cells

[8] = molecular target: T6, gH expressed from MVA in BHK-21 cells (human cytomegalovirus, UniProt P12824 24-743); assay: intracellular FC, MVA-infected BHK-21
T6 construct: whole, on cells

[9] = molecular target: T7, gH/gL co-expressed from MVA in BHK-21 cells (human cytomegalovirus, UniProt P12824 24-743; P16832 31-278); assay: intracellular FC, MVA-infected BHK-21
T7 construct: whole, on cells

[10] = molecular target: T8, gH/gL/UL128 co-expressed from MVA in BHK-21 cells (human cytomegalovirus, UniProt P12824 24-743; P16832 31-278; P16837 28-171); assay: intracellular FC, MVA-infected BHK-21
T8 construct: whole, on cells

[11] = molecular target: T9, gH/gL/UL130 co-expressed from MVA in BHK-21 cells (human cytomegalovirus, UniProt P12824 24-743; P16832 31-278; P16772 1-214); assay: intracellular FC, MVA-infected BHK-21
T9 construct: whole, on cells

[12] = molecular target: T10, gH/gL/UL131A co-expressed from MVA in BHK-21 cells (human cytomegalovirus, UniProt P12824 24-743; P16832 31-278; F5HET4 19-129); assay: intracellular FC, MVA-infected BHK-21
T10 construct: whole, on cells

[13] = molecular target: T11, gH/gL/UL128/UL130 co-expressed from MVA in BHK-21 cells (human cytomegalovirus, UniProt P12824 24-743; P16832 31-278; P16837 28-171; P16772 1-214); assay: intracellular FC, MVA-infected BHK-21
T11 construct: whole, on cells

[14] = molecular target: T12, gH/gL/UL128/UL131A co-expressed from MVA in BHK-21 cells (human cytomegalovirus, UniProt P12824 24-743; P16832 31-278; P16837 28-171; F5HET4 19-129); assay: intracellular FC, MVA-infected BHK-21
T12 construct: whole, on cells

[15] = molecular target: T13, gH/gL/UL128/UL130/UL131A pentamer complex expressed from MVA-PC in BHK-21 cells (human cytomegalovirus, UniProt P12824 24-743; P16832 31-278; P16837 28-171; P16772 1-214; F5HET4 19-129); assay: FC, biotinylated NAb titrated on MVA-PC-infected BHK-21 (cell surface PC)
T13 construct: whole, on cells

[16] = molecular target: T13, gH/gL/UL128/UL130/UL131A pentamer …; assay: FC competition, MVA-PC BHK-21; unlabelled row Ab; competitor: biotinylated 1B2
[17] = molecular target: T13, gH/gL/UL128/UL130/UL131A pentamer …; assay: FC competition, MVA-PC BHK-21; unlabelled row Ab; competitor: biotinylated 12E2
[18] = molecular target: T13, gH/gL/UL128/UL130/UL131A pentamer …; assay: FC competition, MVA-PC BHK-21; unlabelled row Ab; competitor: biotinylated 13B5
[19] = molecular target: T13, gH/gL/UL128/UL130/UL131A pentamer …; assay: FC competition, MVA-PC BHK-21; unlabelled row Ab; competitor: biotinylated 21F6
[20] = molecular target: T13, gH/gL/UL128/UL130/UL131A pentamer …; assay: FC competition, MVA-PC BHK-21; unlabelled row Ab; competitor: biotinylated 18F10
[21] = molecular target: T13, gH/gL/UL128/UL130/UL131A pentamer …; assay: FC competition, MVA-PC BHK-21; unlabelled row Ab; competitor: biotinylated 54E11

| Binder | IC50, inhibition of TB40/E cell-to-cell spread in ARPE-19 [1] [µg/mL] | IC50, neutralization of TB40/E infection of ARPE-19 [1] [µg/mL] | IC50, neutralization of TB40/E infection of CTB [1] [µg/mL] | IC50, neutralization of TB40/E infection of HUVEC [1] [µg/mL] | IC50, neutralization of TB40/E infection of MRC-5 [1] [µg/mL] | IC50, inhibition of TR cell-to-cell spread in ARPE-19 [2] [µg/mL] | IC50, neutralization of TR infection of ARPE-19 [2] [µg/mL] | IC50, neutralization of TR infection of HUVEC [2] [µg/mL] | IC50, neutralization of TR infection of MRC-5 [2] [µg/mL] | binding result [3] | binding result [4] | binding result [5] | binding result [6] | binding result [7] | binding result [8] | binding result [9] | binding result [10] | binding result [11] | binding result [12] | binding result [13] | other results |
| --- | --- | --- | --- | --- | --- | --- | --- | --- | --- | --- | --- | --- | --- | --- | --- | --- | --- | --- | --- | --- | --- |
| B1 | 17 | 0.0034 | 0.0249 | 0.0046 | > 25 | 18 | 0.0034 | 0.0059 | > 25 | no binding | no binding | no binding | no binding | no binding | no binding | no binding | no binding | no binding | no binding | no binding | binding result [14]: no binding; EC50 [15]: 0.51 nM; Binding Inhibition (%) [16]: 0%; Binding Inhibition (%) [17]: 0%; Binding Inhibition (%) [18]: 0%; Binding Inhibition (%) [19]: 100%; Binding Inhibition (%) [20]: 0%; Binding Inhibition (%) [21]: 100% |
| B2 | 18 | 0.0026 | 0.0307 | 0.004 | > 25 | 19 | 0.0035 | 0.0059 | > 25 | no binding | no binding | no binding | no binding | no binding | no binding | no binding | no binding | no binding | no binding | no binding | binding result [14]: no binding; EC50 [15]: 0.62 nM; Binding Inhibition (%) [16]: 0%; Binding Inhibition (%) [17]: 0%; Binding Inhibition (%) [18]: 0%; Binding Inhibition (%) [19]: 100%; Binding Inhibition (%) [20]: 0%; Binding Inhibition (%) [21]: 100% |

Source: patent US20180230200A1 (CITY OF HOPE, published 2018)
